Where a chain is given by its changes, count along the chain named.
B1: CD3.75 (AC3404) (bispecific antibody, V domains shown)
VH: EVQLLESGGGIVQPGGSLKLSCAASGFTFNTYAMNWVRQAPGKGLEWVARIRSKWNNYATYYADSVKDRFTISRDDSKNTVYLQMNNLKTEDTAVYYCVRHENFGNSYVSWFAHWGQGTLVTVSS
VL: ELVVTQEPSLTVSPGGTVTLTCRSSNGAVTSSNYANWVQQKPGQAPRGLIGGTNKRAPGTPARFSGSLLGGKAALTLSGVQPEDEAVYYCALWYPNLWVFGGGTKLTVL
B2: CD3.97 (AC3426) (bispecific antibody, V domains shown)
VH: B1 VH with W55Y, Y82G
VL: B1 VL
B3: CD3.95 (AC3424) (bispecific antibody, V domains shown)
VH: B1 VH with W55Y, D68G
VL: B1 VL
B4: CD3.92 (AC3421) (bispecific antibody, V domains shown)
VH: B1 VH with W55Y, Y62W
VL: B1 VL
B5: CD3.93 (AC3422) (bispecific antibody, V domains shown)
VH: B1 VH with W55Y, A63K
VL: B1 VL
B6: CD3.87 (AC3416) (bispecific antibody, V domains shown)
VH: B1 VH with W55Y, Y61T
VL: B1 VL
B7: CD3.101 (AC3430) (bispecific antibody, V domains shown)
VH: B1 VH with W55Y, N87S
VL: B1 VL
B8: CD3.105 (AC3434) (bispecific antibody, V domains shown)
VH: B1 VH with W55Y
VL: B1 VL with G70E
B9: CD3.85 (AC3414) (bispecific antibody, V domains shown)
VH: B1 VH with W55Y, Y61D
VL: B1 VL
B10: CD3.110 (AC3439) (bispecific antibody, V domains shown)
VH: B1 VH with W55Y
VL: B1 VL with L68T
B11: CD3.99 (AC3428) (bispecific antibody, V domains shown)
VH: B1 VH with W55Y, N87E
VL: B1 VL
B12: CD3.81 (AC3410) (bispecific antibody, V domains shown)
VH: B1 VH with W55Y, Y58F
VL: B1 VL
B13: CD3.96 (AC3425) (bispecific antibody, V domains shown)
VH: B1 VH with W55Y, Y82D
VL: B1 VL
B14: CD3.102 (AC3431) (bispecific antibody, V domains shown)
VH: B1 VH with W55Y, N87Y
VL: B1 VL
B15: CD3.98 (AC3427) (bispecific antibody, V domains shown)
VH: B1 VH with W55Y, Y82S
VL: B1 VL
B16: CD3.82 (AC3411) (bispecific antibody, V domains shown)
VH: B1 VH with W55Y, Y58W
VL: B1 VL
B17: CD3.107 (AC3436) (bispecific antibody, V domains shown)
VH: B1 VH with W55Y
VL: B1 VL with L68S
B18: CD3.90 (AC3419) (bispecific antibody, V domains shown)
VH: B1 VH with W55Y, Y62Q
VL: B1 VL
B19: CD3.79 (AC3408) (bispecific antibody, V domains shown)
VH: B1 VH with W55Y, N57E
VL: B1 VL
B20: CD3.109 (AC3438) (bispecific antibody, V domains shown)
VH: B1 VH with W55Y
VL: B1 VL with L68N
B21: CD3.89 (AC3418) (bispecific antibody, V domains shown)
VH: B1 VH with W55Y, Y62E
VL: B1 VL
B22: CD3.106 (AC3435) (bispecific antibody, V domains shown)
VH: B1 VH with W55Y
VL: B1 VL with L69D
B23: CD3.104 (AC3433) (bispecific antibody, V domains shown)
VH: B1 VH with W55Y
VL: B1 VL with L69Q
B24: CD3.100 (AC3429) (bispecific antibody, V domains shown)
VH: B1 VH with W55Y, N87Q
VL: B1 VL
B25: CD3.91 (AC3420) (bispecific antibody, V domains shown)
VH: B1 VH with W55Y, Y62G
VL: B1 VL
B26: CD3.78 (AC3407) (bispecific antibody, V domains shown)
VH: B1 VH with W55Y, N57D
VL: B1 VL
B27: CD3.77 (AC3406) (bispecific antibody, V domains shown)
VH: B1 VH with W55Y, N56E
VL: B1 VL
B28: CD3.86 (AC3415) (bispecific antibody, V domains shown)
VH: B1 VH with W55Y, Y61E
VL: B1 VL
B29: CD3.83 (AC3412) (bispecific antibody, V domains shown)
VH: B1 VH with W55Y, A59G
VL: B1 VL
B30: CD3.80 (AC3409) (bispecific antibody, V domains shown)
VH: B1 VH with W55Y, Y58G
VL: B1 VL
B31: CD3.84 (AC3413) (bispecific antibody, V domains shown)
VH: B1 VH with W55Y, A59T
VL: B1 VL
B32: CD3.88 (AC3417) (bispecific antibody, V domains shown)
VH: B1 VH with W55Y, Y62D
VL: B1 VL
B33: CD3.94 (AC3423) (bispecific antibody, V domains shown)
VH: B1 VH with W55Y, A63P
VL: B1 VL
B34: CD3.108 (AC3437) (bispecific antibody, V domains shown)
VH: B1 VH with W55Y
VL: B1 VL with L68K

What follows are binders tested against CD3 (target of the Pool 1 CD3.23 screen) (assay: Octet, crude lysate).
CD3 (target of the Pool 1 CD3.23 screen), sequence (P07766 23-126): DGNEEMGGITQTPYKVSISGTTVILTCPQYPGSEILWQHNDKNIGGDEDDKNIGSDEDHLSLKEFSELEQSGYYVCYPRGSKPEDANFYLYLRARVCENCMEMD

Kd | Binder
10.5 nM | B1
121 nM | B2
5.4 nM | B3
37.2 nM | B4
8 nM | B5
17.9 nM | B6
4.8 nM | B7
4.9 nM | B8
939 nM | B9
8.9 nM | B10
5.9 nM | B11
6.1 nM | B12
9.8 nM | B13
5.5 nM | B14
9.6 nM | B15
7.8 nM | B16
7.3 nM | B17

Kd | Binder
7.2 nM | B18
8.3 nM | B19
8.3 nM | B20
9.7 nM | B21
6.1 nM | B22
4.6 nM | B23
7.1 nM | B24
8.3 nM | B25
7.4 nM | B26
575 nM | B27
183 nM | B28
8.2 nM | B29
11.3 nM | B30
10.7 nM | B31
63.2 nM | B32
8.2 nM | B33
3.2 nM | B34

Source: patent US20250188184A1
